Results taken from patent US20140079722A1, “EXTRACELLULAR TARGETED DRUG CONJUGATES” (CENTROSE, LLC, priority 2011, published 2014).

Test: Single-dose tolerated dose (MTD), tail vein
Assay type: in vivo, BALB/c mice
Description: EDC M53-PEG24-CEN09-106 preparations with drug loading of 2, 5 or 9 drugs per antibody were administered to BALB/c mice (Harlan Laboratories, n=1) in a single dose of 25, 50, 100 and 200 mg/kg via the tail vein to determine single-dose MTDs. Mice were monitored daily for 24 days, and both weight and clinical observations were recorded (weight measured at least twice a week and evaluation for overt signs of toxicity conducted at least twice a day).

B1: M53-PEG24-CEN09-106: Class 1 EDC: antibody M53 conjugated to linker-ready agent PEG24-CEN09-106 (scillarenin, 4-amino-xyloside, PEG24) (conjugate)
heavy: EVQLVESGGGLVQPKGTLKLSCAASGFSFNTHAMNWVRQAPGKSLEWVARTMSKSNNYATYYADSVKDRFIIRADDSQSMLYLQMNNLKTEDTAMYYCVRDDPKRGMDYWGQGTSVTVSSAKTTPPSVYPLAPGSAAQTNSMVTLGCLVKGYFPEPVTVTWNSGSLSSGVHTFPAVLQSDLYTLSSSVTVPSSTWPSETVTCNVAHPASSTKVDKKIE
light: GIVMSQSPSSLAVSVGEKVTMSCKPSQSLLYSRNQKIYLAWYQQKPGQSPKLLIYWASTRESGVPDRFTGSGSGTDFTLIISSVRAEDLAVYYCQQYYNYPLTFGAGTKLELKRADAAPTVSIFPPSSEQLTSGGASVVCFLNNFYPKDINVKWKIDGSERQNGVLNSWTDQDSKDSTYSMSSTLTLTKDEYERHNSYTCEATHKTSTSPIVKSFNR
clinical observations (drug loading of 2, 200 mg/kg): limb weakness at day 1 but recovered by day 3
loss in body weight (drug loading of 2, 200 mg/kg): 25%
MTD (drug loading of 2, single dose tail vein, BALB/c mice): > 100 mg/kg
clinical observations (drug loading of 5, 100 mg/kg): slight limpness and closed front limbs but recovered by day 3
weight loss (drug loading of 5, 100 mg/kg): 27%
clinical observations (drug loading of 5, 200 mg/kg): limpness and closed front limbs and weakness at days 1 and 2
clinical observations (drug loading of 5, 25 and 50 mg/kg): no signs of toxicity or weight loss
clinical observations (drug loading of 9, 25 mg/kg): no signs of toxicity or weight loss
clinical observations (drug loading of 9, 50 mg/kg): slight limpness on day 2 but recovered by day 3
weight loss (drug loading of 9, 50 mg/kg, by day 5): 30%
clinical observations (drug loading of 9, 100 and 200 mg/kg): limpness, closed front limbs and weakness by day 1 which continued through day 2
